Substitutions are numbered along the chain they refer to. Names may count otherwise.
B1: wild type human MiRP1 (other)
chain: MSTLSNFTQTLEDVFRRIFITYMDNWRQNTTAEQEALQAKVDAENFYYVILYLMVMIGMFSFIIVAILVSTVKSKRREHSNDPYHQYIVEDWQEKYKSQILNLEESKATIHENIGAAGFKMSP
B2: M54T-hMiRP1 (other)
chain: B1 chain with M54T
B3: T8A-hMiRP1 (other)
chain: B1 chain with T8A
B4: Q9E-hMiRP1 (other)
chain: B1 chain with Q9E
B5: rMiRP1 (other)
chain: MTTLANLTQTLEDAFKKVFITYMDSWRRNTTAEQQALQARVDAENFYYVILYLMVMIGMFAFIVVAILVSTVKSKRREHSQDPYHQYIVEDWQQKYRSQILHLEDSKATIHENLGATGFTVSP
modifications: 35S-methionine label in the in vitro binding assay

What was measured:
HERG [1] = target: T1, HERG (human, UniProt Q12809 1-1159); experiment: cell-based or functional assay
HERG [2] = target: T1, HERG; experiment: cell-based or functional assay; remark: listed apart in the source

T1 sequence (Q12809 whole entry): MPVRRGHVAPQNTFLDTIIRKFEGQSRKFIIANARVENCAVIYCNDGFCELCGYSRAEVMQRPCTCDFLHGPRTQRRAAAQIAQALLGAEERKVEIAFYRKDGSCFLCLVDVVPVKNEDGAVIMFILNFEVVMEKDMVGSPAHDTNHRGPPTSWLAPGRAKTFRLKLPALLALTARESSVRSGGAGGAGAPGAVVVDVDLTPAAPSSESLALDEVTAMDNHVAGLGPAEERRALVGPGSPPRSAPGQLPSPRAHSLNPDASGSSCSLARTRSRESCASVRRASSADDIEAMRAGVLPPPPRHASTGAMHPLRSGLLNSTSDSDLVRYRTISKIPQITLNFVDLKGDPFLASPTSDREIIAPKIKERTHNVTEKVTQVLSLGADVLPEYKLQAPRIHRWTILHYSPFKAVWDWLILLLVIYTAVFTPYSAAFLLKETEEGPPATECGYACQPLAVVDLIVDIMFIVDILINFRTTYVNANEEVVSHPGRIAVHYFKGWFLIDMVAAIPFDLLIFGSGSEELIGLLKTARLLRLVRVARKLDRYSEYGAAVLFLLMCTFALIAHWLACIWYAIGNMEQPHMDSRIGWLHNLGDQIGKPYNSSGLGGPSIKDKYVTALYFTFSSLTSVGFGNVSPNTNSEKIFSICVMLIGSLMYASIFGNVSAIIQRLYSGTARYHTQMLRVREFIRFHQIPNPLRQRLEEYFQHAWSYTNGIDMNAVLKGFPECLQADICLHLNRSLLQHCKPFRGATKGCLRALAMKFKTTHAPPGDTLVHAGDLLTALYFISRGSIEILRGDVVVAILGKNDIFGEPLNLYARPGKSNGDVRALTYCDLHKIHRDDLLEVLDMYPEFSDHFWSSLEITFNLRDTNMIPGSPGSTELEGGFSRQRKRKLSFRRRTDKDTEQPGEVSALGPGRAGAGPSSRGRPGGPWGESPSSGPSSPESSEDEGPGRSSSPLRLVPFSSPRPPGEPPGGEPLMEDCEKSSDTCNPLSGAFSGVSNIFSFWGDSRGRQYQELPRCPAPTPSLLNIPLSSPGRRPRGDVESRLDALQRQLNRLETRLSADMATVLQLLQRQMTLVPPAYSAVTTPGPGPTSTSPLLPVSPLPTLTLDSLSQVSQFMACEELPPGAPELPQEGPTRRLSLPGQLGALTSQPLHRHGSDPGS

| Binder | activation V1/2 (HERG [1]) | deactivation fast time constant (HERG [1]) | deactivation ratio If/(Is + If) (HERG [1]) | deactivation slow time constant (HERG [1]) | deactivation rate at -120 mV, CHO cells (HERG [2]) | deactivation rate against channels with wild type hMiRP1 (HERG [2]) | deactivation rate, oocytes (HERG [2]) | deactivation rate, plasma-like ionic conditions, whole-cell (HERG [2]) |
| --- | --- | --- | --- | --- | --- | --- | --- | --- |
| B1 | -21 mV | 80 | 0.82 | 483 | ~3 fold | – | – | – |
| B2 | -21 mV | 37 | 0.81 | 266 | – | ~3 fold | – | – |
| B3 | -29 mV | 100 | 0.83 | 590 | – | – | – | – |
| B4 | -12 mV | 100 | 0.8 | 750 | – | – | – | – |
| B5 | – | – | – | – | – | – | 7 fold | ~2 fold |

Reference: US20040197818A1 (UNIVERSITY OF UTAH RESEARCH FOUNDATION, published 2004)
